# Data: publication PMC10104474 (Science Advances, 2023)
# Experiments:
# Ucc1-Skp1(FL) complex = Ucc1-Skp1(FL) complex (S. cerevisiae, UniProt Q05947 1-369; P52286 1-194); experiment: pull-down
# crystal structure = molecular target: the molecule itself; experiment: crystal structure
# Sequence of Ucc1-Skp1(FL) complex (Q05947 whole entry, chain 1 of 2): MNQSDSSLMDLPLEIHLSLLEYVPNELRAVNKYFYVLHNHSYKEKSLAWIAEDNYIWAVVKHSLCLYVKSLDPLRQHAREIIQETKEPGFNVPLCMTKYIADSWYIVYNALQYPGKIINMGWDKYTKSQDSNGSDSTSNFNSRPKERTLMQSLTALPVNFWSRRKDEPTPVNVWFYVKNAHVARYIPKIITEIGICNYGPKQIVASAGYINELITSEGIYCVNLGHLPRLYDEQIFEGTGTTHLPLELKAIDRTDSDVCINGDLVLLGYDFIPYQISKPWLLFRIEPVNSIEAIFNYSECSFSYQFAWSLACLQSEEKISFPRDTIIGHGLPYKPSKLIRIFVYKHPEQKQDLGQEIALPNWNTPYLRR
# Sequence of Ucc1-Skp1(FL) complex (P52286 whole entry, chain 2 of 2): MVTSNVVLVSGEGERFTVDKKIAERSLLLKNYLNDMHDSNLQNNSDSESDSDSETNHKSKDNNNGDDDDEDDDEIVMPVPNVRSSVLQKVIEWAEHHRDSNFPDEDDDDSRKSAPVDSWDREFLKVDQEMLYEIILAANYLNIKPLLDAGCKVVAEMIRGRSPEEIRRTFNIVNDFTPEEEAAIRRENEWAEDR
Binder,binding result (Ucc1-Skp1(FL) complex),stoichiometry N (crystal structure)
"MBP-Cit1(Δ1–37) (enzyme, S. cerevisiae, UniProt P00890 38-479, looked up) SSASEQTLKERFAEIIPAKAEEIKKFKKEHGKTVIGEVLLEQAYGGMRGIKGLVWEGSVLDPEEGIRFRGRTIPEIQRELPKAEGSTEPLPEALFWLLLTGEIPTDAQVKALSADLAARSEIPEHVIQLLDSLPKDLHPMAQFSIAVTALESESKFAKAYAQGVSKKEYWSYTFEDSLDLLGKLPVIASKIYRNVFKDGKITSTDPNADYGKNLAQLLGYENKDFIDLMRLYLTIHSDHEGGNVSAHTTHLVGSALSSPYLSLAAGLNGLAGPLHGRANQEVLEWLFKLREEVKGDYSKETIEKYLWDTLNAGRVVPGYGHAVLRKTDPRYTAQREFALKHFPDYELFKLVSTIYEVAPGVLTKHGKTKNPWPNVDSHSGVLLQYYGLTEASFYTVLFGVARAIGVLPQLIIDRAVGAPIERPKSFSTEKYKELVKKIESKN",binds,
"Cit2 (full-length, HisSUMO1-tag cleaved) (enzyme, S. cerevisiae, UniProt P08679 1-460, looked up) MTVPYLNSNRNVASYLQSNSSQEKTLKERFSEIYPIHAQDVRQFVKEHGKTKISDVLLEQVYGGMRGIPGSVWEGSVLDPEDGIRFRGRTIADIQKDLPKAKGSSQPLPEALFWLLLTGEVPTQAQVENLSADLMSRSELPSHVVQLLDNLPKDLHPMAQFSIAVTALESESKFAKAYAQGISKQDYWSYTFEDSLDLLGKLPVIAAKIYRNVFKDGKMGEVDPNADYAKNLVNLIGSKDEDFVDLMRLYLTIHSDHEGGNVSAHTSHLVGSALSSPYLSLASGLNGLAGPLHGRANQEVLEWLFALKEEVNDDYSKDTIEKYLWDTLNSGRVIPGYGHAVLRKTDPRYMAQRKFAMDHFPDYELFKLVSSIYEVAPGVLTEHGKTKNPWPNVDAHSGVLLQYYGLKESSFYTVLFGVSRAFGILAQLITDRAIGASIERPKSYSTEKYKELVKNIESKL",,2
